One test addresses T1, Stu2-WT-Flag (S. cerevisiae, UniProt P46675 1-888).
T1 sequence (looked up): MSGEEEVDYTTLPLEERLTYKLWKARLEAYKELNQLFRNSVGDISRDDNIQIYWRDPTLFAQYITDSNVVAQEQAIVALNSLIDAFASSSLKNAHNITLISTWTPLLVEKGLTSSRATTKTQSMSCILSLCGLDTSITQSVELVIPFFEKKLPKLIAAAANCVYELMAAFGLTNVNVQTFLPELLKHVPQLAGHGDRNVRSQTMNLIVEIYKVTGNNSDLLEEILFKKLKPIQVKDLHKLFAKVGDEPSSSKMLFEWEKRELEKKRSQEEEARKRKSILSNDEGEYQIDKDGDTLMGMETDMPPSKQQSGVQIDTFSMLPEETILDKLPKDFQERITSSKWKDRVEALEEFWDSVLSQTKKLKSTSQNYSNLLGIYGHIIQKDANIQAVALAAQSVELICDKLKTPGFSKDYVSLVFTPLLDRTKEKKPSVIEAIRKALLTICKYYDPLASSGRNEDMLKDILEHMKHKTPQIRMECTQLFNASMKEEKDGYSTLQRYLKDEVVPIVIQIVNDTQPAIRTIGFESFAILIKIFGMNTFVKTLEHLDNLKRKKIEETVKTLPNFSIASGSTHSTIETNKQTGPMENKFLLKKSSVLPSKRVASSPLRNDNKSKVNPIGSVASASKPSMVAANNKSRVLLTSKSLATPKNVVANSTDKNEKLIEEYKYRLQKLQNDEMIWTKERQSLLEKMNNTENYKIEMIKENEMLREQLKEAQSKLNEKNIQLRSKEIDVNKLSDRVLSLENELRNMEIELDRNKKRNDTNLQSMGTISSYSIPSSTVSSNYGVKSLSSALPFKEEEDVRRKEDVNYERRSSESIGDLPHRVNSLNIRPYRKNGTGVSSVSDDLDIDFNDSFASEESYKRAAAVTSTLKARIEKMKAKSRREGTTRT
As to the kind of experiment: SEC. On the technique in general: In gel filtration, larger molecules generally elute earlier.

Another test addresses T2, Stu2-2D-Flag (S. cerevisiae, UniProt P46675 1-888, S813D | S815D).
T2 sequence (looked up): T1 sequence (looked up) with S813D, S815D
As to the kind of experiment: SEC.

Changes are numbered by the printed parent chain.

B1: Bik1 (recombinant, from StrepII-TEV-Bik1) (natural protein, S. cerevisiae, UniProt P11709 1-440, looked up)
chain: MDRYQRKIGCFIQIPNLGRGQLKYVGPVDTKAGMFAGVDLLANIGKNDGSFMGKKYFQTEYPQSGLFIQLQKVASLIEKASISQTSRRTTMEPLSIPKNRSIVRLTNQFSPMDDPKSPTPMRSFRITSRHSGNQQSMDQEASDHHQQQEFGYDNREDRMEVDSILSSDRKANHNTTSDWKPDNGHMNDLNSSEVTIELREAQLTIEKLQRKQLHYKRLLDDQRMVLEEVQPTFDRYEATIQEREKEIDHLKQQLELERRQQAKQKQFFDAENEQLLAVVSQLHEEIKENEERNLSHNQPTGANEDVELLKKQLEQLRNIEDQFELHKTKWAKEREQLKMHNDSLSKEYQNLSKELFLTKPQDSSSEEVASLTKKLEEANEKIKQLEQAQAQTAVESLPIFDPPAPVDTTAGRQQWCEHCDTMGHNTAECPHHNPDNQQFF
For the molecule B1, the binding result with Stu2-WT-Flag and in the test with Stu2-2D-Flag was “binds” each time.
